Substitutions are numbered along the chain they refer to.
B1: h1A11.2 (antibody, V domains shown)
VH: EVQLVESGGGLVQPGGSLRLSCAASGFTFSNFPMAWVRQAPGKGLEWVATISSSDGTTYYRDSVKGRFTISRDNAKNSLYLQMNSLRAEDTAVYYCARGYYNSPFAYWGQGTLVTVSS
VL: DIQMTQSPSSLSASVGDRVTITCRASEDIYSNLAWYQQKPGKSPKLLIFDTNNLADGVPSRFSGSGSGTDSTLTISSLQPEDFATYFCQQYNNYPPTFGQGTKLEIKR
notes: humanized IgG; also called VH.1/VL.1a 1A11
B2: h1A11.5 (antibody, V domains shown)
VH: B1 VH with N77S, A97S
VL: B1 VL with S43A, F49Y, S71F, F87Y
notes: humanized IgG; also called VH.1a/VL.1 1A11
B3: h1A11.6 (antibody, V domains shown)
VH: B1 VH with N77S, A97S
VL: B1 VL
notes: humanized IgG; also called VH.1a/VL.1a 1A11
B4: h1A11.7 (antibody, V domains shown)
VH: B1 VH with N77S, A97S
VL: B1 VL with S43A, S71F, F87Y
notes: humanized IgG; also called VH.1a/VL.1b 1A11

biological target: T1, human DLL4, full length, on cells (human, UniProt Q9NR61 27-685); experiment: FACS, DLL4 cells
T1 construct: also called huDLL4 cells; human DLL4-293G
T1 sequence (Q9NR61 27-685 limits assumed): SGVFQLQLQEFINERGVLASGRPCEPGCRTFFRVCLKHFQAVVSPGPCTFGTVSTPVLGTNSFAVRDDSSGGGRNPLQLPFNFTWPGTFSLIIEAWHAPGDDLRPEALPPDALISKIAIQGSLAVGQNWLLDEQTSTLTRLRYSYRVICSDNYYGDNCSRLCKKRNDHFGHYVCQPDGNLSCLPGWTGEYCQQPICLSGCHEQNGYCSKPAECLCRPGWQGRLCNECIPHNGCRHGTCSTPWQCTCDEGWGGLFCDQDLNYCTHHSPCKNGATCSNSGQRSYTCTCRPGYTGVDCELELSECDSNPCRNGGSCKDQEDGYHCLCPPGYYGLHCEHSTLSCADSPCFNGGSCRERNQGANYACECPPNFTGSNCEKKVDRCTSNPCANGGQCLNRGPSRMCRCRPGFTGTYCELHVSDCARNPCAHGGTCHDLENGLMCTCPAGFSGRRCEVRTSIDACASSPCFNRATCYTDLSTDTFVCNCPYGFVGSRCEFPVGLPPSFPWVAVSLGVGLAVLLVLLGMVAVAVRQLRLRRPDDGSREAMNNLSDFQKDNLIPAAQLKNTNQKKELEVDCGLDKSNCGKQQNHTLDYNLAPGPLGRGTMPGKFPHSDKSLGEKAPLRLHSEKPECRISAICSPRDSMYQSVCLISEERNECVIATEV

Binder | EC50 [pM]
B1 | 2850
B2 | 3610
B3 | 3740
B4 | 3710

biological target: T2, mouse DLL4 on cells (mouse, UniProt Q9JI71 27-686); experiment: FACS, DLL4 cells
T2 construct: whole, on cells; also called mouse DLL4-293G; mu DLL4 cells
T2 sequence (Q9JI71 27-686): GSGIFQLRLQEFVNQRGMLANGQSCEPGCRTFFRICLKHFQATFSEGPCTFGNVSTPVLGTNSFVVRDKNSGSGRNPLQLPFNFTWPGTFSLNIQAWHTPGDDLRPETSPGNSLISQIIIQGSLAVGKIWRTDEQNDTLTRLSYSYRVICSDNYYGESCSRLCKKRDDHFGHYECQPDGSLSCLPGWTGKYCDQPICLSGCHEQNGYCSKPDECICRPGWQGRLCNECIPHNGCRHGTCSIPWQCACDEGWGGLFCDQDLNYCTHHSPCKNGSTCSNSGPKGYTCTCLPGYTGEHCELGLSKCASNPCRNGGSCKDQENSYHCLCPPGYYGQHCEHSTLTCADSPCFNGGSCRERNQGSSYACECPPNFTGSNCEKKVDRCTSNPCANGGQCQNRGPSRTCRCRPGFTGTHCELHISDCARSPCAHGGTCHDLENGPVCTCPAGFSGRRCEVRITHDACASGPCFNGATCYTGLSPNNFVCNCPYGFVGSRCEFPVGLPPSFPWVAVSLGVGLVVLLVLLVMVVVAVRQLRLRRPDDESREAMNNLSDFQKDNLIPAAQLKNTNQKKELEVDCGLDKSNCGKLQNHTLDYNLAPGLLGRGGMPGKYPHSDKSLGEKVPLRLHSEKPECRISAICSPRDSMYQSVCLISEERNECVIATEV

Binder | EC50 [pM]
B1 | 210
B2 | 210
B3 | 150
B4 | 180

biological target: T3, mouse DLL4 extracellular domain (mouse, UniProt Q9JI71 27-532); experiment: SPR (Biacore)
T3 construct: extracellular domain; also called muDLL4 ECD; murine DLL4
T3 sequence (Q9JI71 27-532): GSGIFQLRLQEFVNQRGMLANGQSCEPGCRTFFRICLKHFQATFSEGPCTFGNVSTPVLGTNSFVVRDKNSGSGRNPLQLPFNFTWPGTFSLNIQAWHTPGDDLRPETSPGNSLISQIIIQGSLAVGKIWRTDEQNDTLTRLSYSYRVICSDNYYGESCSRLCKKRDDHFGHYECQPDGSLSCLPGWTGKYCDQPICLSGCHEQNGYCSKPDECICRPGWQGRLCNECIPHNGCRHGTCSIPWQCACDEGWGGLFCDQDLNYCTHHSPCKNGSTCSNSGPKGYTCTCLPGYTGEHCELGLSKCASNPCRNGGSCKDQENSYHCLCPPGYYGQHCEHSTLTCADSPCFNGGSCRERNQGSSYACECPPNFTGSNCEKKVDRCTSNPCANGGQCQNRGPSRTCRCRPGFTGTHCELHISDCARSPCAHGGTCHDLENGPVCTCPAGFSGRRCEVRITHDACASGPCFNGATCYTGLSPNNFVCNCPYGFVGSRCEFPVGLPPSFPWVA
Protocol: (§1) The BIACORE® surface plasmon resonance assay (Biacore, Inc., Piscataway, N.J., US) determines the affinity of antibodies with kinetic measurements of on-rate and off-rate constants. Binding of DLL4 antibodies to a purified recombinant DLL4 extracellular domain (ECD) was determined by surface plasmon resonance-based measurements with a Biacore® instrument (either a Biacore 2000, Biacore 3000, or Biacore T100; GE Healthcare, Piscataway, N.J., US) using running buffer HBS-EPB (10 mM HEPES [pH 7.4], 150 mM NaCl, 3 mM EDTA, 0.1 mg/ml BSA and 0.005% surfactant P20) at 25° C. For example, approximately 9000 RU of goat anti-human Fc specific polyclonal antibody (Thermo Fisher Scientific Inc., Rockford, Ill., US) diluted in 10 mM sodium acetate (pH 4.5) is directly immobilized across a CMS research grade biosensor chip using a standard amine coupling kit according to manufacturer's instructions and procedures at 25 μg/ml. Unreacted moieties on the biosensor surface were blocked with ethanolamine. For kinetic analysis, rate equations derived from the 1:1 Langmuir binding model were fitted simultaneously to multiple antigen injections (using global fit analysis) with the use of Scrubber 2 (BioLogic Software), Biacore Biaevaluation 4.0.1 software or Biacore T100 Evaluation software. Purified antibodies were diluted in running buffer for capture across goat anti-human Fc reaction surfaces. Antibodies to be captured as a ligand (1 μg/ml) were injected over reaction matrices at a flow rate of 10 μl/min. During the assay, all measurements were referenced against the capture surface alone (i.e., with no captured anti-DLL4 antibody). […] The equilibrium dissociation constant KD (M) of the reaction between antibodies and the target antigen was then calculated from the kinetic rate constants by the following formula: KD=Koff/Kₒₙ. Binding was recorded as a function of time and kinetic rate constants were calculated.

Binder | Kd [pM]
B1 | 19000
B2 | 22000
B3 | 31000
B4 | 35000

biological target: T4, human DLL4 extracellular domain (human, UniProt Q9NR61 27-529); experiment: SPR (Biacore)
T4 construct: purified recombinant ECD; biotin-labelled or 6xHis-tagged depending on the assay; also called huDLL4 ECD; hu DLL4 ECD
T4 sequence (Q9NR61 27-529 limits assumed): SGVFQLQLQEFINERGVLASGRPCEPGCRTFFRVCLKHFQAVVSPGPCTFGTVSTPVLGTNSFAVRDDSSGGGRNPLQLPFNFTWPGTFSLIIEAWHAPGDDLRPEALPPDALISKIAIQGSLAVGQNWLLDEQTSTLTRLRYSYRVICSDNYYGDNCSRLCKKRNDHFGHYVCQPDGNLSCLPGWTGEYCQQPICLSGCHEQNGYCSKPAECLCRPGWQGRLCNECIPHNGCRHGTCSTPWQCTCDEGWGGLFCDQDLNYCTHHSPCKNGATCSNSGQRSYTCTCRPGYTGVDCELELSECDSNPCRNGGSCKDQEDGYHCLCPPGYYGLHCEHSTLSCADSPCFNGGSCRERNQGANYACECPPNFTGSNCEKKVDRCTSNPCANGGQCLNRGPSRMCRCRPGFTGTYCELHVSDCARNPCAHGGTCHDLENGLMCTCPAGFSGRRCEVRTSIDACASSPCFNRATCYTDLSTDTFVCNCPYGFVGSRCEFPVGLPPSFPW
Protocol: as §1

Binder | Kd [pM]
B1 | 10000
B2 | 9600
B3 | 11300
B4 | 13000

biological target: T3, mouse DLL4 extracellular domain; experiment: binding ELISA
Protocol: (§2) Plates were then washed 3 times. 100 μl/well of recombinant rat/human chimeric or recombinant human anti-DLL4 antibodies were then added to the plate (0.00164-27 nM, 4-fold serial dilution in ELISA buffer=PBST, 10% Superblock (Pierce #37515)) for 1 hour at 25° C. with shaking and then washed again 3 times. Plates were incubated with goat anti-human HRP (Pierce #31412) (1:40,000 dilution in ELISA buffer, 100 μl/well) for 1 hour at 25° C. with shaking, then washed 3 times. After the final wash, plates were incubated with 100 μl/well ELISA substrate (Sigma #T8665). The reaction was stopped after 8 minutes at 25° C. with 100 μl/well 1N HCl and the absorbance was read at 450 nm. Data were analyzed using Graphpad Prism software, and EC50 values were reported.
(§3) Purified variants were further characterized for their affinities for human, murine and cynomolgus DLL4 by binding ELISA (Example 1.2, Method 2), by Biacore (Example 1.1), and by Flow Cytometry (FACS). […] The humanized variants were then tested for their functionality with human and murine DLL4 by competition ELISA (Example 1.3) and by Notch reporter assay (Example 1.6).

Binder | EC50 [pM]
B1 | 90
B2 | 80
B3 | 100
B4 | 90

biological target: T5, cynomolgus monkey DLL4 extracellular domain (cynomolgus monkey); experiment: binding ELISA
T5 construct: extracellular domain; also called cynoDLL4 ECD; Cyno DLL4
Protocol: as §2, §3

Binder | EC50 [pM]
B1 | 130
B2 | 160
B3 | 130
B4 | 140

biological target: T4, human DLL4 extracellular domain; experiment: binding ELISA
Protocol: as §2, §3

Binder | EC50 [pM]
B1 | 80
B2 | 70
B3 | 80
B4 | 60

biological target: T3, mouse DLL4 extracellular domain; experiment: competition ELISA vs Notch-1
Protocol: (§4) Plates were then washed 3 times with wash buffer (PBS, 0.05% Tween-20) and blocked with 200 μl/well blocking buffer (D-PBS, 1% BSA, 1 mM CaCl₂, 0.05% Tween-20) for 1 hour at 25° C. While blocking, biotin labeled DLL4 extracellular domain (14 nM) was mixed with antibody (30 pM-66 nM, 3-fold serial dilution in blocking buffer) for 1 hour at 25° C. with shaking. Assay plates were washed after blocking, and incubated with DLL4/antibody mixtures (100 μl/well, 1 hour at 25° C. with shaking). Plates were washed again and 100 μl/well streptavidin conjugated with HRP (Fitzgerald #65R-S104PHRPx, diluted 1:5,000 in blocking buffer) was added for 1 hour at 25° C. with shaking. After a final wash, plates were developed using 100 μl/well substrate (TMB Sigma #T8665), and the reaction was stopped using 100 μl/well 1N HCl, and the absorbance was read at 450 nm. Data were analyzed using Graphpad Prism software and IC₅₀ values were reported as the concentration of antibody to achieve 50% reduction of DLL4 bound to Notch1.
as §3

Binder | IC50 [pM]
B1 | 900
B2 | 800
B3 | 800
B4 | 900

biological target: T4, human DLL4 extracellular domain; experiment: competition ELISA vs Notch-1
Protocol: as §4, §3

Binder | IC50 [pM]
B1 | 300
B2 | 300
B3 | 400
B4 | 500

biological target: T1, human DLL4, full length, on cells; experiment: cell-based or functional assay

Binder | Reporter Assay (EC50, nM) [nM]
B1 | 3.92
B2 | 3.8
B3 | 1.45
B4 | 4.84
